From patent US20060153838A1

Key:
[1] = molecular target: soluble human FcγRIIb (biotinylated) (human) (UniProt P31994); experiment: ELISA screen in a manner similar to the anti-PSA library, anti-TNFα parent IgG, biotinylated soluble FcγR, normalized signal
[2] = molecular target: soluble human FcγRIII (biotinylated) (human) (UniProt P08637); experiment: as above
[3] = molecular target: soluble human FcγRIIb (biotinylated) (human) (UniProt P31994); experiment: ELISA: IgG captured on PSA-coated plate, biotinylated soluble FcγR, NeutrAvidin-AP, A560 background-subtracted and normalized
[4] = molecular target: soluble human FcγRIII (biotinylated) (human) (UniProt P08637); experiment: as above
[5] = molecular target: soluble human FcγRIIa (biotinylated) (human) (UniProt P12318); experiment: as above
Sequence of UniProt P12318 (P12318 34-217): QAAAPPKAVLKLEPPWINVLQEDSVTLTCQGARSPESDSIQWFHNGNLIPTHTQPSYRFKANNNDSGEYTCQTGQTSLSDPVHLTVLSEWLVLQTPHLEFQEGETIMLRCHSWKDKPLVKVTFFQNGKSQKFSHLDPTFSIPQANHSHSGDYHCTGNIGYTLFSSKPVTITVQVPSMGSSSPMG

Sequence of UniProt P31994 (P31994 43-217): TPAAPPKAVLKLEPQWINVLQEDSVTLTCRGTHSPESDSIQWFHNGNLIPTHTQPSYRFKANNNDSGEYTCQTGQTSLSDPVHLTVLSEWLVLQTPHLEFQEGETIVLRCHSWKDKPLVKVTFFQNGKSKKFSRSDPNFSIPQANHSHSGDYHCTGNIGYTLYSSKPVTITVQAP
Sequence of UniProt P08637 (P08637 17-208): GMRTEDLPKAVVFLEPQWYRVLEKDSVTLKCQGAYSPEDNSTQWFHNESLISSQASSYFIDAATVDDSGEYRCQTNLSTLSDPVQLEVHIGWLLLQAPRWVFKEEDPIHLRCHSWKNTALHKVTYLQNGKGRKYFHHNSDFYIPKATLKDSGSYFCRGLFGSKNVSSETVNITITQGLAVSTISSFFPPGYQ

Substance | relative FcγRIIb (relative to parental antibody = 1.0) [1] | relative FcγRIII (relative to parental antibody = 1.0) [2] | relative FcγRIIb (relative to parental antibody = 1.0) [3] | relative FcγRIII (relative to parental antibody = 1.0) [4] | relative FcγRIIa (relative to parental antibody = 1.0) [5]
anti-PSA IgG Fc variant S298D (antibody) | – | – | 0.188 | 2.31 | –
anti-PSA IgG Fc variant Y300L (antibody) | – | – | 1.36 | 1.81 | –
anti-TNFα IgG Fc variant K290G (antibody) | 1.46 | 1.64 | – | – | –
anti-PSA IgG Fc variant S298N (antibody) | – | – | 0.363 | 1.42 | –
anti-PSA IgG Fc variant S298V (antibody) | – | – | 0.592 | 2.8 | –
anti-TNFα IgG Fc variant D280Y (antibody) | 2.14 | 1.23 | – | – | –
anti-PSA IgG Fc variant Q295K (antibody) | – | – | 0.892 | 1.47 | –
anti-PSA IgG Fc variant Q295L (antibody) | – | – | 1.34 | 1.06 | 1.44
anti-TNFα IgG Fc variant K290S (antibody) | 1.4 | 1.23 | – | – | –

Next, values leading:

relative FcγRIIb (relative to parental antibody = 1.0) [1] | relative FcγRIII (relative to parental antibody = 1.0) [2] | relative FcγRIIb (relative to parental antibody = 1.0) [3] | relative FcγRIII (relative to parental antibody = 1.0) [4] | relative FcγRIIa (relative to parental antibody = 1.0) [5] | Substance
0.87 | 1.19 | – | – | – | anti-TNFα IgG Fc variant D280Q (antibody)
0.92 | 1.24 | – | – | – | anti-TNFα IgG Fc variant D280H (antibody)
– | – | 1.26 | 1.38 | – | anti-PSA IgG Fc variant Y300I (antibody)
– | – | 0.672 | 1.14 | – | anti-PSA IgG Fc variant E294N (antibody)
